Data published in the domain aggregation screens of Martell et al. (2025).

Assay: soluble fraction after stress (log2 fold change); higher = more stays soluble; pooled small domains, quantitative proteomics
Conditions: stress: 75 degC
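Also: 20 min heating vs room temperature control held 20 min.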

Row | Sequence | soluble fraction (log2)
1 | HMGEWHQMLRSWGETELKNGRQNILDEAVPAFERAMIETALAHTSGRKKDAALLLGWGRNTLTRKLQEHSI | -0.169
2 | HMGEYGVLWYLLTKKEAVSAGELKEKLHVVPGRMTDILTALEKKGLIIRQKNKTDKRVVDVVLTKEGEKEA | -0.731
3 | HMGFAEFWLAYPKKVGKGEAERKWKTLKPDAGAVLSAVKRQSASEQWRKDGGRYIPNPATWLHQRRWE | 0.0452
4 | HMGFALLIAIERTGNTTYFVKLTLIKKGSDSDVLKDSFSVSQGDLVGTATYDSVIANRIREKTAAMWQKAT | -2.76
5 | HMGFDTSMNKYTIDDLLKLLELGSNPSQAEIVNKITNFNTIFVDNSGVIQFLNNIQDKLLDNFK | -0.734
6 | HMGFDTVVEKVLGLITSRPMTSRDIQMTLGRSREHTSRLMNRLYKEGLVDRNTSSKPFSYIITEKGREKI | -0.429
7 | HMGFPAPFDGKAVAELRRRLGLTRRGLAEELSVSPSTVDKWEQGDVALRSPALTILKILWHQGLKALPP | -1.78
8 | HMGFSDDEHNALADADLKKALEVTTNKSETQYNIAKLIYSYIISLGDKKPYGDWSYDKALSIIHDA | -0.0187
9 | HMGGAVQIAEQIAARIKDGALRPGELLPPVRQLAAELEVNPNTVASAYARLRDAGLVATRGRAGTVVLEPP | -0.421
10 | HMGGAYATVKLSSSSSQLNVRASASTASRVVARLSHGFRVEVLGVSGDWVKIRALGVEGYVARAYLALEGE | -3.07
11 | HMGGEAEVLQSIDEGREVEVRSVAADGSAEVIYRGARWRARAAVGSLAAGRWTIGRVDGTELVLEK | -0.0609
12 | HMGGEEKALLFGDVDIREAGEITQRLEQAEIPYELRGDGSSIFVPRSRVMEARMMISADGLL | -0.0934
13 | HMGGEKLPAPVAGTLLRYSVAEGARVSEGQTVIILESMKMELEINTPKAGVIHFLAAVGAQVAEGDTLAEI | -3.46
14 | HMGGGTPEERLATLAAIAERQEMLLERLGPNNPLVSLGQYSRTLSRMVQLAGFKDASQYFNELPLDFQMPE | -0.408
15 | HMGGHLAYGFSRRFGLLIDEQQGEPVIIARPDYSPVHYAEARRIVGQPAALRVVDEQAFNQLLQSQQESGA | -0.512
16 | HMGGLENNLKQARNRVGLTQSELARQAGISRQAYSSLESGAANPSTEVALRLAQALSERVESLFYLPE | -0.117
17 | HMGGNVYAYRLTASVKSGEQIPANKIEKVKMLSSDLPTNYVPDTVNVTAYKSKLDLQAGTILSTSLLYEN | -0.591
18 | HMGGPTARQMEVLSLIAQGLPNKRIADELGIAERTVKLHITALLDSLGARNRTHLLVVARERGM | -2.16
19 | HMGGQKTREAIFDLIMTNSKITSAQIAEILGIHRSGVARHLKKLQEEGLIKREGPDNGGQWIVIK | -0.473
20 | HMGGQYQVRPGETLNQIAARVRPSNMSLSETQKAIIQANPDIFKNGNPNLIFAGDILRIPTGNQI | 0.466
21 | HMGGTTLIAKQATVTGDIQFSSNLDIEGRVVGAISVEPGKEAMLHVVEGGSVEGEIRVPSAVINGKVTGDI | 0.0791
22 | HMGGVEWLTHPIGPRDSLQVLARAGLEARPTSDGDYEIYGQERWPQRDQARLMGWLRRFGQWVWQALYDK | -0.569
23 | HMGHEALSSKLDEIQGVGKEKRSLLLDHFKTFERIKNASMEELEAVPSLGKNTAKAVFRFFHS | -0.0805
24 | HMGHLTWTVTGIGHERRARTVAEQMSSVFGVLEARASSAGTVYLEFEREKIDEGGLEASLKRMGVTRVV | -2.02
25 | HMGIAFDYDAGRFDQVPPNLVEKWQQAYPAVDVLSELRRMEAWASANPVNRKSNWQRFIVNWLTRAQDRAG | -0.859
26 | HMGIAKYRQVTEWIQNRIATGELNRGDQIESENDISRTFGISRQTVRHALGLLEQQGILTRIQGRGTFVRD | -1.45

Row | Sequence | soluble fraction (log2)
27 | HMGIFDIIQEINRQGVTVLLIEQNANMALKIADVGYVLETGRISLTGSGRELLANEAVKKAYL | -1.29
28 | HMGIKYTNQRVEILNFLKDNLSHPTVDDVYEGVKKKLTRISKATVYQNLKFLASKGLIQEVNIKGVSRFEP | -1.98
29 | HMGIRQGKVTSTFVNVRSGASTANAKVGELHKGDVVSLIEKVANFWRIGPGQFVSADYIQVLAS | -2.07
30 | HMGIRYQLADDVTDEQITAMTGKKAKIAAAIKAAGSAVSKMNVAGEMGYDKQNPINKDFMELVDAGIIVPS | -0.0507
31 | HMGISEKVINIIETYTMIARKKYPSVKSLAEHFNVSERTVHRYLEIIKMIDVVDYDREKKGYFFPYGDR | -3.08
32 | HMGISSESIKTFIREIVENEDPKAPLSDQTMVELLAERGIDISRRTVAKYRDEMNLPSSSKRKR | 0.87
33 | HMGKAMIDWEREQSILRILLRQKALTTEQAREVYQDGMREDLSALEMGVQRGYFTHEQLREATGGE | -0.278
34 | HMGKASNEVYEVISSKIRTGEWAPGYKLPSEPTLAEEFGVSRATVREALQELISRGRIKREQGRGTYVLH | -0.0316
35 | HMGKAVTLEEARAIIQAKVPGASPDMIQIWEEHGDGRGRYEGELSYNNMKYEFEMDPKTGIIFDWNA | -0.0538
36 | HMGKEDISQINKLYQNQILDYETYIDTLNSFNIDTKSKDFKNLLDLFIKKSISFETFNKGIINIHNKS | 0.328
37 | HMGKFMVQVGAFSRINGAEITRTKYDNLGTHKAIIKNLDGMNRVFLTGFLSEDEARDFIASSNLKGAFIIR | -2.13
38 | HMGKGVDKIMKMADDYSYGKIAGKTVDVMTAKLFQAAYNKAPQKAKDKVDKMNEKQLYIFMMNLWKRF | -0.768
39 | HMGKIILLFSDDDGVFDTALYRVRNYDGHRFAQSLGNAEMKWRHSEDEYFDFVLTSLREDGYDIEEIE | -1.18
40 | HMGKIINMSKVKQVLRLHTQGVSNRRIALDLGLYKGTVNSYIRKIKDHGYDIAEVLKLDDPVLESKLFA | -0.335
41 | HMGKKGPELNDNEKIIFNIISKENSMNLDDLKNRTELSNKQWDKAIKGLRSHELVNIEKIDDQLLIHL | 0.0386
42 | HMGKKQLVVDLQSIITDVPAALKSYGLEIGQDGKSLIYTYDTKGERTGITTLLNDLQKAGLQMTDMKTQQ | -0.0104
43 | HMGKPTPASQVATRWLAGDLPETLPVAGPAPSFETLARSVSTDFHPRAVLQELLRLGVAEEADGRVRLLK | -0.212
44 | HMGKQPLYEQLVDLLRDRIENDMETGELLPSERKLAHHFGLSRTTVRLAMDRLETLGLITRVHGKDTFVAE | -1.52
45 | HMGKREKTKVANRQAILVAARAVFAELGYEAATVRDIIRGTDLASGTFYNYFKSKEEVFDALADDGA | -1.73
46 | HMGKSETALELIKRGHRLIADDAVEITRIGSTLSGTAPELIRNYLEVRGVGVIDVEKLFGVGAVQDSTQI | 0.0405
47 | HMGKSPLDALSAREKEVLTYITRGVSINDIAAVLYLSPKTVSTHKTNLMQKLGIENNADLILFGVNHGLND | -1.51
48 | HMGLIAPMPGQIRSVAVSVGDVVKKGQTLLTMEAMKMEIRIQALKDGRVTALHAAQGQTVEGEQILIEVE | -2.32
49 | HMGLLEMPSERERQVLVLIAEGLSNKEIAARLYLTEGTVKNHAHSLYAKLNVTTRTLAIARARQLGI | -1.37
50 | HMGLLLSQLDKDYQRYIDLADSTFRDNQLAVSRGWYNRALGVKAAEKYPKDQIAEIEKKIAERM | -0.598
51 | HMGLNEGLNEGQQKVIQHIQENEGIKVKEISLKLNMPIDTVDRHIRVLKNLNLIERRGSRKTGGYFISN | -0.461
52 | HMGLNELQVKLNEAMQRLSLKHRTVVVMHDIEGIPHDEIAKIVGVSVGTIRSRLFYARRQLQADLGEY | -2.32

Row | Sequence | soluble fraction (log2)
53 | HMGLNNVSDILRLDFNSFKKKFDKLPSGYKNSVVEQAALMIKSGELDSIKIKDYIEKSMGIELDI | -0.511
54 | HMGLQDLFLNSLRKSKTPVTMFLVKGVKLQGVVTWFDNFSVLLRRDGMSQLVYKHSISTIMP | -0.0352
55 | HMGLSARIAQRIHGLRTAQRMSLEALAARSGVSRSMISLIERNEASPTAVVLEKIATGLNVVLAALFDTP | -1.76
56 | HMGLSNYEFNSISQTVKEKLEQGPLTLKALVDETAHLFAEDKVVSVVQWLIDQRDLAYDDHGLLQWKG | -0.792
57 | HMGLTLREKMGHVLEMLKGREFLPFVSLFTVEEGRIGVVVTFMSILELVKEGILDLVQTESFGPIHVKAR | -0.541
58 | HMGMAETTARILQLLGLLQSRRGWSGQELAERLGVTTRSVRRDVERLRELGYPVHASAGHGGGYQLGA | -2.18
59 | HMGMGDALRILFNQAMLIEREQYLQAGAYERNENPVNYANGFKAKTLNTRVGALEVAVPQTRDSAFYPSFL | 0.0631
60 | HMGMLATFVTSAKVPDDVVYAITKEVFENLDEFKKLHPALEGLTRETMLEGLTAPIHPGALKYYKEAGLM | -0.533
61 | HMGMSQQKQSSTVRIIMQDISDANEGLMKMSQIIDAALAEGISETIVRNAISNLHRGGTIYESQTGTYQW | -0.196
62 | HMGMTDEELNREEERVVAELEAKDEEELTIYNEEDLTFEETLDLPEGSLMRDRENGMIYLKVLDIWMPY | -0.575
63 | HMGMTNRIKELRKAKGYRQEDLAAALGVSRQTIIAVENNKYNPTLELAMKLARHLQTTVEELFQL | -2.01
64 | HMGMVEFEIGERDHSEDVSRKLFEAGLIEDASDFNQYMIEKKMDDHLQTGKYQIPKGATKDEILELIVR | 0.043
65 | HMGMYAEERHQAIASLARKHGRVSVAELAERFNVTSETIRRDLDSLARRGLLTRVHGGAVPVE | 0.0144
66 | HMGMYFTEMRKNEGLIALNGVAESNKRVSDLMDNLKDSSSFDAADIKAVKSGSGDASSLMDFELLVT | -0.0643
67 | HMGNASQAARRQRIVDAALELLQDRPYDQIQMRDVAEGAGVALGTLYRYFPSKEQLFAHVLVE | -0.286
68 | HMGNEMQVPNVAGKTVDEAIEIFNNMGLKVAAENKYAQSDDVKEGDVVKTDPSSGRNVKKGSEITLYISQG | 0.375
69 | HMGNEVMYRQDLSEQELLSFIKKYTGQDEVTHIVVGAPKQRDNTPSPVETKITPFVVQLKAQFPDVNVV | 0.0976
70 | HMGNFNDMLKYLRVREKMSQAELADKLGVSKSTVGMYELGKREPDFETLEAIADLFNVDMNFLLGK | -0.423
71 | HMGNHMSFKMWGEQLQEAFRALETYDTQKAKTILNELVRFPIDSDITKALKGIISNIDDMMA | -0.881
72 | HMGNLPPAVINARIKVSPAGRGVFVGFDKGSTSTEAKYADAIRGYLPNIEFNKDDHESVVTVPFNFR | -0.0124
73 | HMGNTLAYSEFRQKVQEGAVKQVVLSEDRVTGELTNGDRFTANIVRDPELLKMLNDNNVKYDGKPT | 0.154
74 | HMGNVGEAIEALVKGFQEGNQFQTLLGVTGSGKTFTMANVIAALNKPTLIISHNKTLAAQLYLSLIHIS | 0.277
75 | HMGNYRVIKWGMQGDDVKLMQQMLINRGYVLSATGKYASRTLKAIMAFQEANGLKADGIVGKRTWNKLL | -2.78
76 | HMGPAYEKIVANGQTFYRYNVKKGEGLMAVSRTFNVSVNDILKYNPSAASGLKDGQELLIPVIDDA | 0.16
